B1: Sex-determining transformer protein 1 (Caenorhabditis elegans), P34708 (parent)
chain: MMAPSTEDPDTVVEAQRRGSFSKKKNANGWNKVELVDQCAKQMGSEDKQPGGGDVKTENDPSKNGLGSATSNFIQSSVPPSHQTLSNPLQLSPPAEASVAQQSGASQVFPTFQAALGASSDELLQPNATSSSTSSSASTSSIVPVVKFTNQTAPNGSTVATSVGQNVRLTINGKRVGRPPGTFKRPQNNAANSSNSGNDSDMMGDHDLTCRWKSCNSSFQTLKALVDHVQESHVQSTEQEHHAWRCEWEGCDRNETFKALYMLIVHVRRHTGEKPNKCEYPGCGKEYSRLENLKTHRRTHTGEKPYKCEFADCEKAFSNASDRAKHQNRTHSNLKPYSCQIPQCTKSYTDPSSLRKHIKAVHGDDEYEKAKKSRPANYSNRRRPDHRLAPPTGAMSHPYLATPNSGASVVAHSSVHQQNFINMALAQHHHNAQRAQQLMAATGNVMPMMDPASAAAAAQAQAHHQAQAQMLQTHMMQQAQIQAAAQMQAQVQHQAAMQAHAMQQAQMVLQNNLLGAQSLLSPFSPLLPPSRAPNVMAMLQTPPTPTSVAPMFDIMTSRAPMAPVVSAPTAPAPLVPAPVPASPVFDELREQMREVEPLQQQQQQEPMDQDLQDIRVDGDSDDEDEEEPRTPSGALLLPRGGNNGDGGFGGSGSSRASSGSGTMELSAAPISQNGSRASGSGERGMRSFLIADILQLAADFQNERLLSDVLDLAIFDTRDVRSLHNIYQVYIRAHKAIPITRRPLDWNETHQLHNLYHDPRFNRAEHQDSPAIRDRDTRFWRTIAEANTMRQRQIEPVPLDDDDEGYFDEMVHRVQNGRLNEQFMEGFESDDDDGFEDEDDVPGLGIAVYRGRRRVRREALKQANLDIQEAETAGRNVGGFGDEEDRNNRGHDQDRSFLDHYYPPMVVVVETESPQIVRDQEMMRQFEEAKKNVETDEIKKRAEAMQFGTSSSHHHTKTLLIQRALFDKTSSVRRSLLQFITISVDQEELRQSCHATSAPQGAHVVHNVVDEFDSIMRAQEDSNNRILLSLDIPAPSAVTGVSGSITHADNSALQLQQEQPTSSFSSWFPEDDPIYALPPPPPPPAPPRRRRSADNKDDSENIPKKPRHQF
partner: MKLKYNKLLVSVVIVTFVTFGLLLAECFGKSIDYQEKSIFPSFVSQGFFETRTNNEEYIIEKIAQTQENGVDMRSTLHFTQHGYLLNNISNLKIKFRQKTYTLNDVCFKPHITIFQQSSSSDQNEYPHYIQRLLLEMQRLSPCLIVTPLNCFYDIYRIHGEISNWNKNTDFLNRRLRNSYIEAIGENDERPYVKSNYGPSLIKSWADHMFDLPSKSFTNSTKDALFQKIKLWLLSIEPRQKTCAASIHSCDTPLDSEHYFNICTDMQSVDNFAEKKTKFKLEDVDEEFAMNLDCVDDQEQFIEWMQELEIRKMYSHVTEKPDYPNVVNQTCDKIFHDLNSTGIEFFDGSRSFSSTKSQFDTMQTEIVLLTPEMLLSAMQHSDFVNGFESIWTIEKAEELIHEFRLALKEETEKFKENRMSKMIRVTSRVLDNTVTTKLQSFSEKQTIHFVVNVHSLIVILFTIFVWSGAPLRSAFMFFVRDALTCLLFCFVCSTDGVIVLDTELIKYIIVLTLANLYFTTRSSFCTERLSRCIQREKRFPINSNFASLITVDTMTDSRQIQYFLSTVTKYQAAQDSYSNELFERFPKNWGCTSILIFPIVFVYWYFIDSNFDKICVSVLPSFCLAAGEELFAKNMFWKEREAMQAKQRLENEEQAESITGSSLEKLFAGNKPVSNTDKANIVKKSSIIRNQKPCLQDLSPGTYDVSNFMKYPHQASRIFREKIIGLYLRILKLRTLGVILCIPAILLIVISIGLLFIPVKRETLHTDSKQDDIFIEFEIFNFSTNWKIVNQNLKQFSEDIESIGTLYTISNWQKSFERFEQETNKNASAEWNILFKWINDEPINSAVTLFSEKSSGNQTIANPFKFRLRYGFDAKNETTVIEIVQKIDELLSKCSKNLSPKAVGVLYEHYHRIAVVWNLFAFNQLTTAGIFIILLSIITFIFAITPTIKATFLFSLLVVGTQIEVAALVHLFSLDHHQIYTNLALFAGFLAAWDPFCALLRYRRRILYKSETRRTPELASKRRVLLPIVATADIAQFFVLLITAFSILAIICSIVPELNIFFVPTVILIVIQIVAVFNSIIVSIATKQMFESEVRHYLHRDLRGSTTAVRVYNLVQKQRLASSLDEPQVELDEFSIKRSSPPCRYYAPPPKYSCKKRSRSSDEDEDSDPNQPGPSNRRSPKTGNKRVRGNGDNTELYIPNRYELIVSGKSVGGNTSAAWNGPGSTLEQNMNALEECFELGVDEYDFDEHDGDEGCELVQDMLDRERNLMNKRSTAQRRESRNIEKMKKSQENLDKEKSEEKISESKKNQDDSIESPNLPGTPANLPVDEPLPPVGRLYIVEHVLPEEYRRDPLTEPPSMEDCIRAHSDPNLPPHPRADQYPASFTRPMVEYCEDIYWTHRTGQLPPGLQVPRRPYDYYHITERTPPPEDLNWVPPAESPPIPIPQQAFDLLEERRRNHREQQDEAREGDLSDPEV
B2: Sex-determining transformer protein 2 (Caenorhabditis elegans), P34709 (parent)
chain: B1 partner
partner: B1 chain

Results on 2 variants are retold here after IntAct's records for PubMed 11124807.

The first assay covers variants of B1. The conditions noted are these: with tra2_caeel tra-2, P34709.
With L723F, the “effect of a mutation on the interaction” value was “decreasing interaction”.

The next assay covers variants of B2. To be noted: with tra1_caeel tra-1, P34708.
C1392Y;E1393K;R1400Q: the “effect of a mutation on the interaction” value was “decreasing interaction”.
